Data set [1] addresses T1, CtNaa20 (Thermochaetoides thermophila, UniProt G0SGG4).
T1 construct: gene CTHT_0066240; full length, C-terminal His6 (pET21d), E. coli Rosetta II (DE3); residues 2-190 built in the crystal structure
The experiment in a line: nanoDSF thermal shift. The format is binding. As to conditions: varying ligand excess; buffer G pH 7.5.

The target in data set [2] is T2, CtNatB (Thermochaetoides thermophila, UniProt G0SGG4).
T2 construct: gene CTHT_0066240; co-expressed in E. coli Rosetta II (DE3); CtNaa20 with C-terminal His6, CtNaa25 with TEV-cleavable N-terminal His6; with N-alpha-acetyltransferase 25 (N-terminal acetyltransferase B complex auxiliary subunit NAA25)
The experiment in a line: nanoDSF thermal shift. As to conditions: 1/64 protein/ligand; buffer G pH 7.5. In kind it is binding. Background: Differential scanning fluorimetry follows unfolding on heating by fluorescence.

Data set [3] concerns the target Chaetomium thermophilum Naa25, auxiliary subunit of NatB, full length (Chaetomium thermophilum). The experiment in a line: SEC-MALS; Superdex 200 10/300 in buffer G (20 mM HEPES pH 7.5, 200 mM NaCl); CtNatB (0.12 mg, co-expressed and purified as a complex), CtNaa25 (0.13 mg) and CtNaa20 (0.1 mg) injected one after the other.
For data set [4], the target named is Chaetomium thermophilum Naa20 residues 1-166 (predicted GNAT fold) (Chaetomium thermophilum). Kind of data set: ITC; CtNaa20_(1-166) 25-35 uM in the cell, CtNaa25 250-400 uM in the syringe, 20 °C, buffer G (20 mM HEPES pH 7.5, 200 mM NaCl), single-site binding model, triplicates. On the technique in general: In ITC the heat of successive injections is recorded.

Data set [5] addresses Chaetomium thermophilum Naa20, catalytic subunit of NatB, full length (Chaetomium thermophilum).
In data set [6] the target is Chaetomium thermophilum NatB complex (CtNaa25 with CtNaa20) (Chaetomium thermophilum).
The target in data set [7] is T3, CtNaa20 (Chaetomium thermophilum, UniProt G0SGG4 1-235).
T3 sequence: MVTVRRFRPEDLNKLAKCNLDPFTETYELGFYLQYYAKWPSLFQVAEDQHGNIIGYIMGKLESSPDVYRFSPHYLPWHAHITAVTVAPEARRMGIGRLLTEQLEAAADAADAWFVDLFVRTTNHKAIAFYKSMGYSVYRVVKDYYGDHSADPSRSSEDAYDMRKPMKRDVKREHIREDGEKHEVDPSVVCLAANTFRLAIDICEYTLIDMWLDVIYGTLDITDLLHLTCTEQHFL
The experiment in a line: EMSA; 5-20 uM protein, 5 uM RNA; 20 mM Tris pH 8, 200 mM NaCl, 10 mM MgCl2, 10 mM KCl, 20% glycerol, 20 C, 30 min; 0.8% agarose gel in 0.5x TB. As to conditions: protein: recombinant; tags: C-terminal His6.

Data set [8] concerns the target T4, Chaetomium thermophilum NatB complex (CtNaa25 with CtNaa20) (Chaetomium thermophilum).
T4 chain: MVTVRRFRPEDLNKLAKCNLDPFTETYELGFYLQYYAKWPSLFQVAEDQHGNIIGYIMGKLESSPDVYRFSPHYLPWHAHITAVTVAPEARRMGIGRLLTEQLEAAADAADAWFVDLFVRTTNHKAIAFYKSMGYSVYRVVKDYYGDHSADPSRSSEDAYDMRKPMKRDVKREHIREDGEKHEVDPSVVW
Kind of data set: cell-based or functional assay.

Data set [9] deals with T4, Chaetomium thermophilum NatB complex …. The experiment in a line: enzyme inhibition kinetics (acetylation microplate assay); 500 nM enzyme; mode of inhibition and inhibitor constant of CoA-Ac-MDEL in the acetylation of MDEL; competitive inhibitor; triplicates. As to conditions: both partners purified.

No end group written: not given here. CoA = coenzyme A

Consider `CC(=O)SCCNC(=O)CCNC(=O)[C@H](O)C(C)(C)COP(=O)(O)OP(=O)(O)OC[C@H]1O[C@@H](n2cnc3c(N)ncnc32)[C@H](O)[C@@H]1OP(=O)(O)O` [AcCoA], for which the Tm result in [1] is “Binding of both ligands to CtNatB and CtNaa20 is indicated by protein stabilization”. The “Tm without to with ligand” value in [2] was 58 to 62 °C.
As for “Chaetomium thermophilum Naa20, catalytic subunit of NatB, full length (enzyme)”, the stoichiometry N in data set [3] turned out to be 1.
With “Chaetomium thermophilum Naa25, auxiliary subunit of NatB, full length (natural protein)”, in [4], the Kd is 0.0178 µM, the dH is 22.6 kJ/mol and the stoichiometry N was 1.
Take MDEL peptide (canonical NatB substrate): the Km for MDEL in the acetylation assay (constant AcCoA, varying MDEL) in [5] is 4400 µM; in data set [6], 232 µM.

B1: CtES27 fragment (tip of expansion segment 27) (structured_RNA)
RNA: GGGCCUCUAGCCGGGCAACCGGCCGGCGGCUC
Consider B1, for which the binding result in data set [7] is “no binding”.

B2: CoA-Ac-MDEL bisubstrate analog (peptide MDEL joined to coenzyme A through an acetyl bridge) (peptide)
peptide: {CoA-Ac}-MDEL
notes: peptide part of the bisubstrate analog, the canonical NatB substrate MDEL; A tetrapeptide conjugate of 1314 Da; also called MDEL (peptide part M1pD2pE3pL4p); source: synthetic peptide (solid phase), bromo-acetylated and coupled to coenzyme A, purified by reverse phase HPLC
In [5], B2 had an IC50 of the inhibition of acetylation by CtNaa20 alone of 6.5 µM. For the same molecule, the “half-maximum inhibitor concentration (IC50) of the NatB mediated acetylation of MDEL” value in data set [8] came out at 1.56 µM. Also, the Ki in [9] worked out at 0.41 ± 0.14 µM.

For orientation: stoichiometry N means the number of molecules, sites or subunits per partner or assembly. By Kd is commonly meant the free concentration of one partner at which half of the binding sites on the other are occupied at equilibrium, for simple one-to-one binding. The term Ki denotes the dissociation constant of the complex between target and ligand, obtained from inhibition or displacement. Read a low Ki as a stronger hold on the target.
